According to article PMC6585436 (Chemistry & biology, 2015):
“And” between values parts separate entries of the source, which are not always exact repeats. Equal entries are not always repeated. Where two headings read alike, the source gives them in different places.

Tests used:
Experiment in all cases: native MS
[1] = target: AfMscL C-GFP (pet15b-AfMscL-TEV-GFP-6xHis) (Acidithiobacillus ferrooxidans)
[2] = target: N-His MtMscL (pet15b-10xHis-Thrombin-MtMscL-PG) (Mycobacterium tuberculosis) (UniProt A5U127)
[3] = target: N-His MtMscL (pet15b-10xHis-Thrombin-MtMscL-PG) (Mycobacterium tuberculosis) (UniProt A5U127); remark: listed apart in the source
native MS [4] = target: the molecule itself
native MS [5] = target: the molecule itself; remark: listed apart in the source
native MS [6] = target: the molecule itself; remark: listed apart in the source
native MS [7] = target: the molecule itself; remark: listed apart in the source
native MS [8] = target: the molecule itself; remark: listed apart in the source

AfMscL C-GFP (pet15b-AfMscL-TEV-GFP-6xHis) (natural protein)
stoichiometry N [1]: 5

N-His MtMscL (pet15b-10xHis-Thrombin-MtMscL-PG) (from UniProt A5U127 1-151) (natural protein)
stoichiometry N [2]: 5
relative abundance of pentamer [3]: 38%
relative abundance of tetramer [3]: 63%
stoichiometry N [3]: 4

B1: SaMscL C-GFP (pet15b-SaMscL-S-TEV-GFP-6xHis) (natural protein, Staphylococcus aureus, UniProt P68805 1-120, looked up)
chain: MLKEFKEFALKGNVLDLAIAVVMGAAFNKIISSLVENIIMPLIGKIFGSVDFAKEWSFWGIKYGLFIQSVIDFIIIAFALFIFVKIANTLMKKEEAEEEAVVEENVVLLTEIRDLLREKK
stoichiometry N (native MS [4]): 4
stoichiometry N (native MS [5]): 5

B2: Full-length SaMscL, cleaved of its C-terminal GFP tag (natural protein, Staphylococcus aureus, UniProt P68805 1-120, looked up)
chain: MLKEFKEFALKGNVLDLAIAVVMGAAFNKIISSLVENIIMPLIGKIFGSVDFAKEWSFWGIKYGLFIQSVIDFIIIAFALFIFVKIANTLMKKEEAEEEAVVEENVVLLTEIRDLLREKK
stoichiometry N (native MS [6]): 5 and 4

B3: N-His SaMscL (pet15b-10xHis-Thrombin-SaMscL) (natural protein, Staphylococcus aureus, UniProt P68805 1-120, looked up)
chain: MLKEFKEFALKGNVLDLAIAVVMGAAFNKIISSLVENIIMPLIGKIFGSVDFAKEWSFWGIKYGLFIQSVIDFIIIAFALFIFVKIANTLMKKEEAEEEAVVEENVVLLTEIRDLLREKK
stoichiometry N (native MS [7]): 5
stoichiometry N (native MS [5]): 4 and 3 and 2

B4: SaMscL CΔ25 C-GFP (pet15b-SaMscL CΔ(96–120)-S-TEV-GFP-6xHis) (domain or fragment)
chain: MLKEFKEFALKGNVLDLAIAVVMGAAFNKIISSLVENIIMPLIGKIFGSVDFAKEWSFWGIKYGLFIQSVIDFIIIAFALFIFVKIANTLMKKEE
stoichiometry N (native MS [7]): 4
stoichiometry N (native MS [8]): 5
